Among the data in the Human Domainome abundance scans (Beltran et al. 2025) are abundance fitness values, retold here.

± gives the uncertainty stated by the source.

B1: Cell division cycle and apoptosis regulator protein 1, residues 625 to 674; numbered along this chain, Q8IX12 (parent)
chain: ISTPTHWSKLDPKTMKVNDLRKELESRALSSKGLKSQLIARLTKQLKVEE

This data set covers variants of B1. The data set can be described thus: abundance fitness (aPCA) (normalised: wild type 0, dead -1); higher = more abundant; growth selection in yeast, the domain comes from the species named. The conditions noted are these: Homo sapiens.
For the variant ISTPTHWSKLDPKTMKVNDLRKELESRALSSKGLKSQLIARLTKQLKVEV, the abundance fitness was -0.231 ± 0.035. As for ISTPTHWSKLDPKTMKVNDLRKELESRALSSKGLKSQLIARLTKQLKVEI, the abundance fitness stood at 0.068 ± 0.16.

ISTPTHWSKLDPKTMKVNDLRKELESRALSSKGLKSQLIARLTKQLKVER: the abundance fitness is -0.27 ± 0.068.

As for ISTPTHWSKLDPKTMKVNDLRKELESRALSSKGLKSQLIARLTKQPKVEE, the abundance fitness was -0.822 ± 0.066. In the case of ISTPTHWSKLDPKTMKVNDLRKELESRALSSKGLKSQLIARLTKQYKVEE, the abundance fitness is -0.617 ± 0.11. Under ISTPTHWSKLDPKTMKVNDLRKELESRALSSKGHKSQLIARLTKQLKVEE stands -0.026 ± 0.043. The same measure for ISTPTHWSKLDPKTMKRNDLRKELESRALSSKGLKSQLIARLTKQLKVEE: -0.139 ± 0.035; for ISTPTHWSKLDPKTMKANDLRKELESRALSSKGLKSQLIARLTKQLKVEE: -0.093 ± 0.028. As to ISTPTHWSKLDPKTMKVNDLRKELESRALSSNGLKSQLIARLTKQLKVEE, the abundance fitness was -0.143 ± 0.038. Under ISTPTHWSKLDPKTMKVNDLRKELESRALSSRGLKSQLIARLTKQLKVEE stands -0.105 ± 0.034. For ISTPTHWTKLDPKTMKVNDLRKELESRALSSKGLKSQLIARLTKQLKVEE, the abundance fitness is -0.113 ± 0.038. Under ISTPTHWDKLDPKTMKVNDLRKELESRALSSKGLKSQLIARLTKQLKVEE stands -0.126 ± 0.043; under ISTPTHWSKLDPKTMKVNDLRKELESRWLSSKGLKSQLIARLTKQLKVEE, -0.053 ± 0.041; under ISTPTHWSKLDPKTMKVNDLRKELESPALSSKGLKSQLIARLTKQLKVEE, -0.784 ± 0.12. For the variant ISTPTHWSKLDPKTMKVNDLRKELESHALSSKGLKSQLIARLTKQLKVEE, the abundance fitness was -0.765 ± 0.11.

Consider ISTPTHWSKLDPKTMKVNDLRKELESTALSSKGLKSQLIARLTKQLKVEE, for which the abundance fitness was -0.948 ± 0.14. The same measure for ISTPTHWSKLDPKTMKVNDIRKELESRALSSKGLKSQLIARLTKQLKVEE: 0.136 ± 0.063; for ISTPTHWSKLDPKTMKVNDLRKELFSRALSSKGLKSQLIARLTKQLKVEE: -0.568 ± 0.038. As for ISTPTHWSKLDPKTMKVNDLRKELVSRALSSKGLKSQLIARLTKQLKVEE, the abundance fitness is -0.155 ± 0.044. Under ISTPTHWSKLDPKTMKVNDLRKELRSRALSSKGLKSQLIARLTKQLKVEE stands -0.154 ± 0.043; under ISMPTHWSKLDPKTMKVNDLRKELESRALSSKGLKSQLIARLTKQLKVEE, -0.004 ± 0.06. Under ISWPTHWSKLDPKTMKVNDLRKELESRALSSKGLKSQLIARLTKQLKVEE stands -0.252 ± 0.049. Under ISTPTHWSKLDPKTMKVNDLRKELESRALSWKGLKSQLIARLTKQLKVEE stands -0.097 ± 0.029. Regarding ISTPTHWSKLDPKTMKVNDLRKELESRALSSKGLKSQLIAVLTKQLKVEE, the abundance fitness was -0.417 ± 0.043. Regarding ISTPTHWSKLDPKTMKVNDLRKELESRALSSKGLKSQLKARLTKQLKVEE, the abundance fitness is 0.016 ± 0.048. Under ISTPTHWSKLDPKTMKVNDLRKELESRALSSKGLKSQLEARLTKQLKVEE stands -0.102 ± 0.047; under ISTPTHWSKLDPKTMKVNDLVKELESRALSSKGLKSQLIARLTKQLKVEE, -0.106 ± 0.037; under ISTPTHWSKLDPKTMKVNDLSKELESRALSSKGLKSQLIARLTKQLKVEE, -0.191 ± 0.049. The same measure for ISTPTHWSKLDPKTMKVNDLFKELESRALSSKGLKSQLIARLTKQLKVEE: -0.419 ± 0.042. Under ISTPTHWSKLDGKTMKVNDLRKELESRALSSKGLKSQLIARLTKQLKVEE stands -0.655 ± 0.035; under ISTPTHWSKLDPKTMKVNDLRKELESRALSSKGLWSQLIARLTKQLKVEE, -0.482 ± 0.032. Take ISTPTHWSKLDPKTMKVNDLRKELESRALSSKGLCSQLIARLTKQLKVEE: the abundance fitness was -0.355 ± 0.058. Consider ISTPTHWSKLDPKTMKVNDLRKELESRALSSKGLESQLIARLTKQLKVEE, for which the abundance fitness is -0.074 ± 0.048. The same measure for ISTPTHWSKLDPKTMKVADLRKELESRALSSKGLKSQLIARLTKQLKVEE: 0.072 ± 0.029. Under ISTPTHWSKLDPKTMKVWDLRKELESRALSSKGLKSQLIARLTKQLKVEE stands -0.015 ± 0.03. The same measure for ISTPTHWSKLDPKSMKVNDLRKELESRALSSKGLKSQLIARLTKQLKVEE: -0.005 ± 0.046; for ISTPTHWSKLDPKDMKVNDLRKELESRALSSKGLKSQLIARLTKQLKVEE: -0.061 ± 0.037; for ISTPTHWSKLDPKTMKVNDLRKELESRALSSKGLKSQLIARLHKQLKVEE: -0.105 ± 0.035. For ISTPTHWSKLDPKTMKVNDLRKELESRALSSKGLKSQLIARLNKQLKVEE, the abundance fitness is -0.021 ± 0.062. Under ISTPTHWSKLDPKTMKVNDLRKELESRALSSKGLKSQLIARLRKQLKVEE stands 0.103 ± 0.03. The same measure for ISTPTHWSKLDPKTMKVNDLRKELEARALSSKGLKSQLIARLTKQLKVEE: 0.088 ± 0.048.

On to ISTPTKWSKLDPKTMKVNDLRKELESRALSSKGLKSQLIARLTKQLKVEE, for which the abundance fitness was -0.008 ± 0.05. ISTPTHWSKLDPKTMKVNDLRKRLESRALSSKGLKSQLIARLTKQLKVEE: the abundance fitness is -1.07 ± 0.062. Under ISTPTHWSKLDPKTMKVNDLRKMLESRALSSKGLKSQLIARLTKQLKVEE stands -0.965 ± 0.13; under ISTPTHWSKLDPKTMKVNDLRKCLESRALSSKGLKSQLIARLTKQLKVEE, -0.677 ± 0.065; under ISTPTHSSKLDPKTMKVNDLRKELESRALSSKGLKSQLIARLTKQLKVEE, -0.104 ± 0.035. The same measure for ISTPTHGSKLDPKTMKVNDLRKELESRALSSKGLKSQLIARLTKQLKVEE: -0.187 ± 0.046; for ISTPTHWSKLDPKTMKVNILRKELESRALSSKGLKSQLIARLTKQLKVEE: -0.044 ± 0.034; for ISTPTHWSKLDPKTMKVNKLRKELESRALSSKGLKSQLIARLTKQLKVEE: -0.33 ± 0.035. Under ISTPTHWSKLDPKTMKVNSLRKELESRALSSKGLKSQLIARLTKQLKVEE stands 0.038 ± 0.026; under IMTPTHWSKLDPKTMKVNDLRKELESRALSSKGLKSQLIARLTKQLKVEE, 0.127 ± 0.049.

As for ICTPTHWSKLDPKTMKVNDLRKELESRALSSKGLKSQLIARLTKQLKVEE, the abundance fitness turned out to be 0.029 ± 0.047.
